Columns and labels:
W352-hPro1.ECD.His = molecular target: T1, W352-hPro1.ECD.His (human, UniProt P25942 21-193); test: SPR, Biacore 8K; antibody captured by goat anti-human Fc; analyte W352-hPro1.ECD.His; 1:1 model
T1 construct: range 21-193; Also used for the 'recombinant human CD40 extracellular domain' coated in the ELISAs of 3.4 and 3.5; also called Human CD40 extracellular domain, His tag; human CD40 free protein; not shown: His tag
Description: The affinity of W3525 to human CD40 was determined using Biacore 8K. The activator was prepared by mixing 400 mM EDC and 100 mM NHS immediately prior to injection. The CMS sensor chip was activated for 420 s with the activator at a flow rate of 10 μL/min. Goat anti-human Fc IgG (30 μg/mL in 10 mM NaAc, pH 4.5) was then injected to the channels for 420 s at a flow rate of 10 μL/min The chip was deactivated by 1 M ethanolamine-HCl at a flow rate of 10 μL/min for 420 s. After immobilization, the antibody W3525 was diluted to 66.7 nM in running buffer (1×HBS-EP+) and was captured onto the channel Fc4 at a flow rate of 10 μL/min for 30 s. Seven concentrations (0, 1.5625, 3.125, 6.25, 12.5, 25 and 50 nM) of analyte W352-hPro1.ECD.His were injected orderly to the channels at a flow rate of 30 μL/min for an association phase of 90 s, followed by 300 s dissociation. Glycine solution (10 mM, pH 1.5) as regeneration buffer was injected following dissociation phase to regenerate the chip.
Molecular weight of 29 kDa was used to calculate the molar concentration of W352-hPro1.ECD.His.

W352-cynoPro1.ECD.His = molecular target: T2, W352-cynoPro1.ECD.His (cynomolgus monkey, UniProt G7PG38 21-193); test: SPR, Biacore T200; antibody captured by goat anti-human Fc; analyte W352-cynoPro1.ECD.His
T2 construct: range 21-193; Also used for the 'recombinant cynomolgus monkey CD40 extracellular domain' coated in the ELISA of 3.5; also called Cynomolgus monkey CD40 extracellular domain, His tag; W352-cPro1.ECD.His; not shown: His tag
Description: The affinity of W3525 to cynomolgus monkey CD40 was determined using Biacore T200. The process of immobilization was the same as that of Biacore 8K. The antibody W3525 was diluted to 33.35 nM in running buffer (1×HBS-EP+) and was captured onto Fc2 at a flow rate of 10 μL/min for 60 s. Seven concentrations (0, 1.56, 3.13, 6.25, 12.5, 25 and 50 nM) of analyte W352-cynoPro1.ECD.His were injected orderly to Fc1 and Fc2 at a flow rate of 30 μL/min for an association phase of 240 s, followed by 300 s dissociation. After each cycle, glycine solution (10 mM, pH 1.5) as regeneration buffer was injected to regenerate the chip.
Molecular weight of 29 kDa was used to calculate the molar concentration of W352-cPro1.ECD.His.

[1] = molecular target: T3, human CD40, full-length, on cells (human, UniProt P25942 21-277); test: FACS on W352-CHOK1.hPro1.A7 cells (CHO-K1 with full-length human CD40); W352-CHOK1.hPro1.A7 cells
T3 construct: whole, on cells; Transfected full-length CD40 on CHO-K1 and U937 cells; Endogenous CD40 on Raji, A431, Ramos, primary B cells and dendritic cells; also called cell surface human CD40; W352-CHOK1.hPro1.A7
Description: (§1) W352-CHOK1.hPro1.A7 (1×10⁵ cells/well), Raji (1×10⁵ cells/well) or A431 (5×10⁴ cells/well) cells were incubated with various concentrations of W3525 antibody (3-fold serially diluted from 100 nM to 0.0051 nM, or 5-fold serially diluted from 100 nM to 0.00128 nM) at 4° C. for 1 hour. After washing with 1×PBS/1% BSA, the secondary antibody, Alex647-labeled goat anti-human IgG (1:250) or R-PE-labeled goat anti-human IgG (1:150) was added and incubated with cells at 4° C. in dark for 1 hour. Anti-human CD40 antibodies BMK4 and BMK5 were used as positive controls. Human IgG1 and IgG2 isotype antibodies were used as isotype controls. The cells were then washed and re-suspended in 1×PBS/1% BSA. MFI of the cells was measured by a flow cytometer and analyzed by FlowJo. GraphPad Prism was used to plot the log of antibody concentration (x-axis) versus MFI (y-axis). The EC50 values were determined using four-parameter dose-response curve model.
(§2) The binding result of W3525 on W352-CHOK1.hPro1.A7, Raji and A431 cells are shown in FIGS. 1, 2 and 3, respectively.

[2] = molecular target: T4, cynomolgus monkey CD40 on transiently transfected 293F cells (cynomolgus monkey, UniProt G7PG38 21-278); test: FACS on 293F cells transiently transfected with cynomolgus monkey CD40
T4 construct: whole, on cells; also called cell surface cynomolgus monkey CD40
Description: Cynomolgus monkey CD40 transiently transfected 293F cells (2×10⁵ cells/well) were incubated with various concentrations of W3525 (3-fold serially diluted from 200 nM to 0.0102 nM) at 4° C. for 1 hour. After washing with 1×PBS/1% BSA, a secondary antibody, R-PE-labeled goat anti-human IgG (1:150) was added and incubated with cells at 4° C. in dark for 1 hour. The cells were washed and suspended and the MFI and EC50 values were determined as described above.

[3] = molecular target: T3, human CD40, full-length, on cells; test: cell-based or functional assay
[4] = molecular target: T3, human CD40, full-length, on cells; test: FACS competition on W352-CHOK1.hPro1.A7 cells; competitor W352-hpro1L1.ECD.mFc at 5 ug/mL
Description: W352-CHOK1.hPro1.A7 cells were plated in a 96-well plate at a density of 1×10⁵ cells/well. A constant concentration of W352-hPro1L1.EECD.mFc (5 μg/mL) diluted in 1×PBS/1% BSA was added to the cells, followed by serially diluted antibodies (3-fold serially diluted from 60 nM to 0.0274 nM in 1×PBS/1% BSA), and mixed well. The plate was incubated at 4° C. for 1 hour.

[5] = molecular target: T3, human CD40, full-length, on cells; test: cell-based or functional assay; remark: listed apart in the source
[6] = molecular target: T5, CD40 protein, canine, recombinant (His tag) (canine, UniProt Q7YRL5 21-194); test: ELISA, plate coated with 1 ug/mL recombinant CD40 extracellular domain
T5 construct: extracellular domain; Bought protein; also called canine CD40
T5 sequence (looked up): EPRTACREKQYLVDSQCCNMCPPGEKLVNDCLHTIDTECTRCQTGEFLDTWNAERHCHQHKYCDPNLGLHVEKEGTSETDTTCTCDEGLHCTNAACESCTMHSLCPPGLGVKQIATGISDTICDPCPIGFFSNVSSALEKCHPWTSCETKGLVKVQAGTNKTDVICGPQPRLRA
Description: (§3) Plate was pre-coated with 1 μg/mL of recombinant human CD40, OX40, 4-1BB, GITR or BCMA extracellular domain in 100 μL coating buffer (0.02 M Na₂CO₃ and 0.18 M NaHCO₃, pH9.2) per well at 4° C. overnight. Next day, the plate was washed with 1×PBST for one time. After 1-hour blocking using 200 μL of 1×PBS/2% BSA, the plate was washed using 1×PBST for 3 times. W3525 was added to the plate at a concentration of 66.7 nM and incubated at ambient temperature for 1 hour. Anti-CD40 antibodies BMK4 and BMK5, anti-OX40 antibody MEDI0562, anti-4-1BB antibody BMS-663513, anti-GITR antibody INCAGN01876 and anti-BCMA antibody EM801 were used as positive controls, respectively. Human IgG2 isotype antibody was used as isotype control. After incubation, the plate was washed using 1×PBST for 3 times. HRP-labeled goat anti-human IgG antibody diluted in 1×PBS/2% BSA at a ratio of 1:5000 was added and incubated for 1 hour. After washing with 1×PBST for 6 times, the color was developed by dispensing 100 μL of TMB substrate, and then reaction was stopped by adding 100 μL of 2M HCl. Absorbance was read at 450 nm and 540 nm using a microplate spectrophotometer. GraphPad Prism was used to plot the antibody concentration (x-axis) versus absorbance (y-axis). All samples were tested in duplicate.
(§4) Plate was pre-coated with 1 μg/mL of recombinant human, cynomolgus monkey, mouse, canine or rat CD40 extracellular domain in 100 μL coating buffer per well at 4° C. overnight. Then the ELISA procedure was performed as described above. Anti-human CD40 antibodies BMK4 and BMK5 were used as positive controls. Human IgG1 and IgG2 isotype antibodies were used as isotype controls.

[7] = molecular target: T6, CD40 protein, rat, recombinant (His tag) (rat, UniProt A6JXD6 20-193); test: as above
T6 construct: Bought protein; also called rat CD40; not shown: C-terminal His tag of the vendor's construct (SinoBiological 80151-R08H)
T6 sequence: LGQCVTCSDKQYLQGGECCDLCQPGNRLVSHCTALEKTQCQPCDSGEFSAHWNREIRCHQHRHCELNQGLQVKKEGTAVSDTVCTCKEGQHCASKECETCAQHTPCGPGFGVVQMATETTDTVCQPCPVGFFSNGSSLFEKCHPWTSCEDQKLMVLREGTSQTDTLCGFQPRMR
Description: as §3, §4

W352-mPro1.ECD.His = molecular target: T7, W352-mPro1.ECD.His (mouse, UniProt P27512 20-193); test: as above
T7 construct: range 20-193; The ELISA of 3.5 says only 'recombinant mouse CD40 extracellular domain'; also called Mouse CD40 extracellular domain, His tag; mouse CD40; not shown: His tag
Description: as §3, §4

[8] = molecular target: T3, human CD40, full-length, on cells; test: FACS on Raji cells (human CD40 binding assay); Raji cells
Description: as §1, §2

[9] = molecular target: T3, human CD40, full-length, on cells; test: FACS on A431 cells (human CD40 binding assay); A431 cells
Description: as §1, §2

[10] = molecular target: T8, recombinant human OX40 extracellular domain (human, UniProt P43489 29-214); test: ELISA, plate coated with 1 ug/mL recombinant extracellular domain
T8 construct: extracellular domain
T8 sequence (looked up): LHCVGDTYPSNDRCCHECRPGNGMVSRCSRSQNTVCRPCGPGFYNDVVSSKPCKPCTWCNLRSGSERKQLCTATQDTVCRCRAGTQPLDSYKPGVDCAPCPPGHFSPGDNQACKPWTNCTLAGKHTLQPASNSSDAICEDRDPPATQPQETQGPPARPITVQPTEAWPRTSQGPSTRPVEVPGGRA
Description: as §3

[11] = molecular target: T9, Human GITR protein (His tag, ECD) (human, UniProt Q9Y5U5 26-162); test: as above
T9 construct: extracellular domain; Bought protein
T9 sequence (looked up): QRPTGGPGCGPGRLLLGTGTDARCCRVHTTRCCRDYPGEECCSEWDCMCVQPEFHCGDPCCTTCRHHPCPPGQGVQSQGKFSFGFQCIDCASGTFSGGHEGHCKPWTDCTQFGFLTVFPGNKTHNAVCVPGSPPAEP
Description: as §3

[12] = molecular target: T10, recombinant human BCMA extracellular domain (human, UniProt Q02223 1-54); test: as above
T10 construct: extracellular domain
T10 sequence (looked up): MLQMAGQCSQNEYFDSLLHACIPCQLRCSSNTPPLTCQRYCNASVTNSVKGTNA
Description: as §3

[13] = molecular target: T11, recombinant human 4-1BB extracellular domain (human, UniProt Q07011 24-186); test: as above
T11 construct: extracellular domain
Description: as §3

[14] = molecular target: T3, human CD40, full-length, on cells; test: cell-based or functional assay; remark: listed apart in the source

T1 sequence (P25942 21-193 limits assumed): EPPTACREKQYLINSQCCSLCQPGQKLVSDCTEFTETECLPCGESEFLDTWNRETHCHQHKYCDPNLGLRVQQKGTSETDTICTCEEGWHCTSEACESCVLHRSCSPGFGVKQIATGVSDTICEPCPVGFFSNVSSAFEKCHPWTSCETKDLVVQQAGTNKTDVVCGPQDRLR
T3 sequence (P25942 21-277): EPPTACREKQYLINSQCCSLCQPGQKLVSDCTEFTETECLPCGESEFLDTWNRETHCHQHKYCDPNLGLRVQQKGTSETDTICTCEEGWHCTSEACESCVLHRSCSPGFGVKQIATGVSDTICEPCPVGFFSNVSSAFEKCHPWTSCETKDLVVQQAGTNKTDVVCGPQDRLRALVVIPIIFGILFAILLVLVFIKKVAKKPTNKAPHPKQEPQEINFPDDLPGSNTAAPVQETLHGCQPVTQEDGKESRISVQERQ
T7 sequence (P27512 20-193 limits assumed): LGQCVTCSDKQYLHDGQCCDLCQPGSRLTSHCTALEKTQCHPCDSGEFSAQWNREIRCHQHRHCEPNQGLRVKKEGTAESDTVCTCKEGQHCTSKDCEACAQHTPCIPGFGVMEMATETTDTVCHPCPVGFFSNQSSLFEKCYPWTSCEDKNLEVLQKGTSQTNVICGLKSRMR
T11 sequence (Q07011 24-186): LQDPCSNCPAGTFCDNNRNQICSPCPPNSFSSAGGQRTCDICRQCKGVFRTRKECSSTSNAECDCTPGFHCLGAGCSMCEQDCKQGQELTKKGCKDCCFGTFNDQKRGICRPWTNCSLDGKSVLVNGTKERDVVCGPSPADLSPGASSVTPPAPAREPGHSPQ

B1: W3525-1.9.16-P5-uIgG2K (antibody, V domains shown)
VH: QVQLVQSGAEVKKPGSSVKVSCKASGDTVSSYGISWVRQAPGQGLEWMGGSIPFFGTPNYAQKFQGRVTFTADESTSTAYMELSSLRSEDTAVYYCARARRGYSYGHYHYYAMDVWGQGTTVTVAS
VL: DTVMTQSPLSLPVTPGEPASISCRSGQSLLHNNAYNYLDWYLQKPGQSPQLLIYLGSNRASGVPDRFSGSGSGTDFTLKISRVEAEDVGVYYCMQALQTPLSFGGGTKVEIKR
notes: Fully human IgG2 kappa with wild-type human IgG2 constant region; also called W3525 antibody; final lead antibody
Kd (W352-hPro1.ECD.His): 7120 pM | koff (W352-hPro1.ECD.His): 0.00405 s⁻¹ | kon (W352-hPro1.ECD.His): 569000 M⁻¹ s⁻¹ | Kd (W352-cynoPro1.ECD.His): 8470 pM | koff (W352-cynoPro1.ECD.His): 0.00377 s⁻¹ | kon (W352-cynoPro1.ECD.His): 444000 M⁻¹ s⁻¹ | EC50 [1]: 1100 pM | EC50 [2]: 2400 pM | EC50, NFκB reporter assay, W352-Ramos.NFκBRE.luc [3]: 1400 pM | EC50, NFκB reporter assay, W352-U937.hPro1.NFκBRE.luc [3]: 1300 pM | IC50 [4]: 1400 pM | EC50, CD54 expression, DC activation assay [5]: 350 pM | EC50, CD80 expression, DC activation assay [5]: 370 pM | EC50, CD83 expression, DC activation assay [5]: 160 pM | EC50, CD86 expression, DC activation assay [5]: 560 pM | EC50, IL-12p40 release, DC activation assay [5]: 470 pM | binding result [6]: no binding | binding result [7]: no binding | binding result (W352-mPro1.ECD.His): no binding | EC50 [8]: 360 pM | EC50 [9]: 160 pM | binding result [10]: no binding (tested: 66.7 nM) | binding result [11]: no binding (tested: 66.7 nM) | binding result [12]: no binding (tested: 66.7 nM) | binding result [13]: no binding (tested: 66.7 nM) | EC50, B cell proliferation [14]: 160 pM
